Measured values as given in patent US20240343803A1 (SHANDONG SIMCERE BIOPHARMACEUTICAL, published 2024).

Legend:
[1] = target: T1, cynomolgus monkey PVRIG on FlpinCHO-cyno PVRIG cells (cynomolgus monkey, UniProt A0A2K5WVV8 41-322); assay: FACS, FlpinCHO-cyno PVRIG cells
T1 construct: whole, on cells; also called FlpinCHO-cynomolgus monkey PVRIG
T1 sequence: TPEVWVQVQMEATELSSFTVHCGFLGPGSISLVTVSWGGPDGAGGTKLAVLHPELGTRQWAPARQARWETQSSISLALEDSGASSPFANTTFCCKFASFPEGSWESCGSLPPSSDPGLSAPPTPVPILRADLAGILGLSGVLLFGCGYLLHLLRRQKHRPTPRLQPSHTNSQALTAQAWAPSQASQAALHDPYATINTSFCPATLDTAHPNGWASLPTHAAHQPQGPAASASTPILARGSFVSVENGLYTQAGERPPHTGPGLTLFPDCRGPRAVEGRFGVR
Description: After discarding the cell culture medium, the cells were rinsed with PBS and digested for 8-10 minutes by adding 1 mL Versene (Gibico, 15040-066). The Ham's F12 (Gibico, 21127-022) complete medium containing 10% FBS was then added to terminate the digestion and acquire cell suspension. After counting with a cell counter (Beckman Coulter, Vi-CELL), an appropriate amount of cell suspension was centrifuged at 350×g to remove the supernatant, washed twice with PBS, stained with Zombie violet (Biolegend, 423114) and incubated at room temperature for 20 minutes. After incubation, the cells were added with staining buffer (2% FBS+PBS) to stop staining, centrifuged at 350×g to remove the supernatant, washed twice and resuspended with staining buffer to a density of 2×10⁶ cells/mL. The cells were plated into a 96-well plate (50 μL of cell suspension per well) for further use. The antibodies were diluted from the highest concentration of 46 nM (two-fold concentration) with staining buffer by 3.3-fold serial dilution. The diluted antibodies were added to the well containing 50 μL of cell suspension. The plate was placed on a microplate shaker at 400 rpm for 1 minute to fully mix the antibodies and cells, and then incubated at 4° C. for 30 minutes. After the incubation, the cells were washed twice with staining buffer (200 μL per well) and centrifuged at 350×g for 5 minutes to discard the supernatant. The PE goat anti-human IgG Fc antibody (ebioscience, 12-4998-82) was diluted 250 times with staining buffer, added into the washed wells (100 μL per well), mixed well, and stained at 4° C. for 30 minutes. After staining, the cells were washed twice with staining buffer, finally resuspended with 200 μL staining buffer and analyzed by flow cytometry (BD, Canto II). […] An antibody binding curve was drawn with concentration of antibodies as the abscissa and the corresponding Mean Fluorescence Intensity (MFI) as the ordinate. The AUC value of the curve was calculated by using a Four Parameter Logistic Fit (GraphPadPrism9). […]

[2] = target: T2, Fusion protein of extracellular domain of human TIGIT and His-tag (human TIGIT ECD-his) (human); assay: BIAcore; KD ratio to TIGIT-CHI-006
T2 chain: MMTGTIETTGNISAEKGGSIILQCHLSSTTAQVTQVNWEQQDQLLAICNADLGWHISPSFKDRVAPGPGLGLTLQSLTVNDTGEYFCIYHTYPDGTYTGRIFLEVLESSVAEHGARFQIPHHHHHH

[3] = target: T3, full-length human TIGIT on CHO-K1 cells (CHO-K1 human TIGIT) (human, UniProt Q495A1 22-244); assay: FACS, CHO-K1 human TIGIT low expression strain
T3 construct: NCBI XP_024309156.1; entry includes the signal peptide; also called high expression strain 1D2; medium expression strain 2D10
T3 sequence: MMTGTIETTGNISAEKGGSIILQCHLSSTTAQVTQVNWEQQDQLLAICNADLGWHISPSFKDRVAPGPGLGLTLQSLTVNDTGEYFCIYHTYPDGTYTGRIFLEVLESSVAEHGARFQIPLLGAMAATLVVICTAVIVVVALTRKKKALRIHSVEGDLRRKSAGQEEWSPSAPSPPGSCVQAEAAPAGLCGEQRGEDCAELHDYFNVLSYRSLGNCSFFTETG
Description: (§1) The collected cells were washed once with PBS (Hyclone, Cat NO. SH30256), resuspended to 2×10⁵/50 μL with 1% BSA-PBS. The antibodies were diluted to 80 nM with 1% BSA-PBS (diluted by 3-fold serial dilution for 12 concentration points). The 50 μL cells were then mixed with 50 μL diluted antibodies, and then incubated at 4° C. for 60 minutes. […] After washing twice with PBS, the cell samples were resuspended with 1% BSA-PBS, 100 μL/well and then analyzed by flow cytometry (BD, Canto II).

[4] = target: T3, full-length human TIGIT on CHO-K1 cells …; assay: FACS, CHO-K1 human TIGIT medium expression strain
Description: as §1

[5] = target: T4, full-length cynomolgus monkey TIGIT on CHO-K1 cells (CHO-K1 cynomolgus monkey TIGIT) (cynomolgus monkey); assay: FACS, CHO-K1 cynomolgus monkey TIGIT cells
T4 construct: NCBI XP_015300911.1; also called cynomolgus monkey TIGIT cells
Description: as §1

[6] = target: T3, full-length human TIGIT on CHO-K1 cells …; assay: FACS, medium expression strain
Description: as §1, with “CAT #SH30256),” for “Cat NO. SH30256),”, “II). […] [0298] (c) The effect of anti-TIGIT chimeric antibodies blocking the interaction between Bio-CD155-His and CHO-K1 human TIGIT high expression cell strains detected by FACS” for “II).”

T4 sequence (chain, as listed by the source limits assumed): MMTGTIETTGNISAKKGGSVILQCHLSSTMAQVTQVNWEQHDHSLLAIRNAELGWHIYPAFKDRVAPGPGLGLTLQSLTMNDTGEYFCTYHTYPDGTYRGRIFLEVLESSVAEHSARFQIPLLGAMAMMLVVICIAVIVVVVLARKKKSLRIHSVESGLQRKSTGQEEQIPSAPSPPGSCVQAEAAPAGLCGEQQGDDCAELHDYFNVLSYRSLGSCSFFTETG

B1: SRF813-hIgG1 (antibody, V domains shown)
VH: QVQLVQSGAEVKKPGSSVKVSCKASGGTFSSAAISWVRQAPGQGLEWMGNIIPIVGIANYAQKFQGRVTITADESTSTAYMELSSLRSEDTAVYYCARDTGRGYTRHFWFDPWGQGTLVTVSS
VL: DIQMTQSPSSLSASVGDRVTITCRASQSISSYLNWYQQKPGKAPKLLIYAASSLQSGVPSRFSGSGSGTDFTLTISSLQPEDFATYYCQQSDILYTFGGGTKVEIK
notes: human IgG1 format by its name
[1]
  EC50 (read off the curve): ~1 nM

B2: PVRIG-A105 (VHH)
VHH: EVQLVESGGGLVQAGGSLRLSCAASGRTFDRHTMTWFRQAPGKEREFVATASRIPGDTYYSHSVKGRFTISRDNAKNTVYLQLNNLKPEDTAVYYCAATSAYCSEVDCYEKGSWYDNWGQGIQVTVSS
notes: tested as VHH-hinge-CH2-CH3 (human IgG1-Fc); not shown: human IgG1 hinge-CH2-CH3
[1]
  EC50 (read off the curve): ~0.5 nM

B3: TIGIT-006-H5L3 (antibody, V domains shown)
VH: EVQLQESGPGLVKPSETLSLTCAVSGYSMTSDYWNWIRQPPGKKLEYIGYISYSGRTYYNPSLKSRVTISRDTSKNQFSLKLSSVTAADTAVYYCARGDYSNYGGAMYDWGQGTTVTVSS
VL: DIVMTQSPDSLAVSLGERATINCRASQGVSTTIAWYQQKPGQSPKLLIYSASYRYTGVPRFSGSGSGTDFTLTISSLQAEDVAVYYCQQYYSSPFTFGGGTKVEIK
notes: Humanized anti-TIGIT antibody
[2]
  Fold change vs chimeric antibodies (KD): 0.83 fold

B4: RG6058-hIgG1 (antibody, V domains shown)
VH: EVQLQQSGPGLVKPSQTLSLTCAISGDSVSSNSAAWNWIRQSPSRGLEWLGKTYYRFKWYSDYAVSVKGRITINPDTSKNQFSLQLNSVTPEDTAVFYCTRESTTYDLLAGPFDYWGQGTLVTVSS
VL: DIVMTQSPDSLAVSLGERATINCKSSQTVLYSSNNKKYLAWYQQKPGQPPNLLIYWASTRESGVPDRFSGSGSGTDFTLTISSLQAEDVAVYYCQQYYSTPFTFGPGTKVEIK
notes: human IgG1 format by its name; also called Roche RG6058; control antibody RG6058
[3]
  EC50 (read off the curve): ~0.4 nM
[4]
  EC50 (read off the curve): ~0.4 nM
[5]
  EC50 (read off the curve): ~1 nM
[6]
  EC50: 0.616 nM
